Assay results: PMC5501590

B1: murine IGSF1-2 (IGSF1 isoform 2): N43Q (protein)
parent chain: MMLRTFTLLLLCIWLNPGMTSLAVESQPELWIESNYPQAPWENITLWCKSPSRVSSKFLLLKDNSQMTWIRPPYKTFQVSFFIGALTESNTGLYRCCYWKEKGWSKPSKILELEAPGQLPKPIFWIQAETPPLPGCNVNIFCHGWLQDLVFMLFKEGYTEPVDYQVPTGTMAIFSIDNLAPENEGVYICRTHIQMLPTLWSEPSNPLKLVVAGGCGHGCWHLTIVIPGIMAG
B2: rat IGSF1-2 (IGSF1 isoform 2): N44Q (protein)
parent chain: MMLRTFTLLLLCIWLNRGMTSMAAVESQPELWIESNYPQAPWENITLWCKSPSRVSSKFLLLKDNTQMTWIHPPYKTFQVSFFIGALTESNTGLYRCCYWNEKGWSKPSKILELEAPGQLPKPIFWIQAETPPFPGCNVNILCHGWLQDLVFMLFKEGYTEPIDYQVPTGTMAIFSIDNLAPENEGIYICRTHIQMLPTLWSEPSNPLKLVVAGGCAHGCWHLTIVIPGIMAG

Columns and labels:
[1] = Myc immunoblot of HEK293 medium, with/without Ni-NTA enrichment; settings: glycan lost; control: wild type
[2] = Myc immunoblot of HEK293 whole cell lysates; settings: glycan lost; control: wild type

Protein	expression_or_secretion [1]	expression_or_secretion [2]
B1	no change	no change
B2	no change	no change
